Measured values reported in patent publication US20230095979A1 (NANTONG YICHEN BIOPHARMA, published 2023).
Substitutions are numbered along the chain they refer to.

T1: Val18pBpa mutant of hC5a (human, UniProt P01031 678-751, not fully specified; p-benzoyl-L-phenylalanine (pBpa) at 18)
T1 construct: X stands for pBpa
T1 chain: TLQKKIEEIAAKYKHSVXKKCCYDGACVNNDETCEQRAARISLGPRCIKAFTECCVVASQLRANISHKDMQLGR

T2: hC5a with 6xHis tag (human, UniProt P01031 678-751)
T2 construct: also called WT hC5a; WT-hC5a
T2 sequence: T1 chain with X18V

B1: 64UV63 phage (scFv)
scFv: ELTLTQSPAFMSATPGDKVNISCKGSQDIDDNMNWYQQKPGEAIIFIIQEATTLVPGIPPRFSGSGYGTDFTLTINNIESEDAAYYFCLQHDNFPPYTFGQGTKLEIKGGSSRSSSSGGGGSGGGGQVQLQESGGGLVQPGGSLRLSCAASGFTFSSYEMNWVRQAPGKGLEWVSYISSSGSTIYYADSVKGRFTISRDNAKNSLYLQMNSLRAEDTAVYYCARDLGGFDPWGQGTLVTASS
notes: also called 64UV63 scFv
B2: hC5a-35 phage (scFv)
scFv: DIQMTQSPSSLSASVGDRVTITCQASQDISNYLNWYQQKPGKAPKLLIYDASNLETGVPSRFSGSGSGTDFTFTIRSLQPEDIATYYCQQYDNLPPWTFGQGTKVEIKGGSSRSSSSGGGGSGGGGEVQLVESGGGLVEPGRSLRLSCTASGYTFGDYAMSWFRQAPGKDLEWVGFIRSKAYGGTTEYAASVKGRFTISRDDSKSIAYLQMNSLKTEDTAVYYCTRAGNDDQYFDYWGQGTQVTVSS
notes: also called hC5a-35scfv; hC5a-35 scfv

Tests used:
IL1β WT with 6xHis tag = target: T3, IL1β WT with 6xHis tag (human, UniProt P01584 117-269); assay: monoclonal phage panning on coated antigen; ratio of output CFU with and without UV crosslinking
T3 construct: Expressed in E. coli from pET28a with a C-terminal 6xHis tag; about 19 kDa on SDS-PAGE; also called WT IL1β; wild-type IL1β
Source text: Colony Forming Unit (CFU) was counted, and finally the positive clones(hits) were picked.
After elution, the output CFUs of UV and non-UV-treated groups were counted and compared.

[1] = target: IL1β 64pBpa mutant (human) (UniProt P01584); assay: monoclonal phage panning on coated antigen, no UV, competitive/low-pH washes, trypsin release, colony count
[2] = target: IL1β 64pBpa mutant (human) (UniProt P01584); assay: monoclonal phage panning on coated antigen; ratio of output CFU with and without UV crosslinking
[3] = target: IL1β 64pBpa mutant (human) (UniProt P01584); assay: monoclonal phage panning on coated antigen, UV 365 nm, competitive/low-pH washes, trypsin release, colony count
Val18pBpa mutant of hC5a = target: T1, Val18pBpa mutant of hC5a; assay: monoclonal phage panning on coated antigen; ratio of output CFU with and without UV crosslinking
hC5a with 6xHis tag = target: T2, hC5a with 6xHis tag; assay: as above

| Binder | UV-treated output CFU/Non-UV-treated output CFU (IL1β WT with 6xHis tag) | Non-UV-treated output CFU [1] | UV-treated output CFU/Non-UV-treated output CFU [2] | UV-treated output CFU [3] | UV-treated output CFU/Non-UV-treated output CFU (Val18pBpa mutant of hC5a) | UV-treated output CFU/Non-UV-treated output CFU (hC5a with 6xHis tag) |
| --- | --- | --- | --- | --- | --- | --- |
| B1 | 1.1 ratio | 22 CFU | 6.4 | 140 CFU | – | – |
| B2 | – | – | – | – | 3.3 ratio | 1.1 ratio |
